Measurements from patent publication US20220363754A1 (SHANGHAI JUNSHI BIOSCIENCES, published 2022).
Like-named read-outs stand apart in the source and are kept apart here.

How the values were obtained:
Assay in all cases: ELISA, 0.5 ug/mL human TIGIT-ECD-mFc coated on the plate, detection with anti-IgG4-HRP, OD 450 nm; unit taken from the axis Log:ng/mL
[1] = molecular target: T1, recombinant protein hTIGIT-ECD-mFC (human; mouse, UniProt Q495A1 24-155)
T1 construct: range 24-155; Expressed in 293E cells; also called human TIGIT-ECD-mFc; not shown: murine IgG2a Fc domain of the vector MX2-mFc
T1 sequence (looked up): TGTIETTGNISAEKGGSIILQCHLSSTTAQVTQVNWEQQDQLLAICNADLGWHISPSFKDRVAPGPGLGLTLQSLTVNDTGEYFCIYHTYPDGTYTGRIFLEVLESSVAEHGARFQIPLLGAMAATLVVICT

[2] = molecular target: T1, recombinant protein hTIGIT-ECD-mFC; remark: listed apart in the source
[3] = molecular target: T1, recombinant protein hTIGIT-ECD-mFC; remark: listed apart in the source
[4] = molecular target: T1, recombinant protein hTIGIT-ECD-mFC; remark: listed apart in the source

EC50 [1]: 0.0362 µg/mL | EC50 [2]: 0.0275 µg/mL | EC50 [3]: 0.0194 µg/mL | EC50 [4]: 0.0262 µg/mL
B1: etigilimab (antibody, V domains shown)
VH: QVQLQESGPGLVKPSETLSLTCAVSGYSITSDYAWNWIRQPPGKGLEWIGYISYSGSTSYNPSLRSRVTISRDTSKNQFFLKLSSVTAADTAVYYCARRQVGLGFAYWGQGTLVTVSS
VL: DIQMTQSPSSLSASVGDRVTITCKASQDVSTAVAWYQQKPGKAPKLLIYSASYRYTGVPSRFSGSGSGTDFTFTISSLQPEDIATYYCQQHYSTPWTFGQGTKVEIK
